Experimental data taken from US20210032312A1 (Janssen / Centocor, published 2021).

How the values were obtained:
[1] = target: T1, cynomolgus monkey CD8A on primary cynomolgus monkey CD8+ T cells (cynomolgus monkey, UniProt P01732 23-235 (human entry)); experiment: flow cytometry, cyno CD8+ T cells, 2 uM FN3
T1 construct: also called Cyno CD8alpha

[2] = target: T2, human CD8 alpha (CD8A) on primary human CD8+ T cells (human, UniProt P01732 22-235); experiment: flow cytometry, human CD8+ T cells, 2 uM FN3
T2 construct: whole, on cells; also called hCD8A
T2 sequence (P01732 22-235): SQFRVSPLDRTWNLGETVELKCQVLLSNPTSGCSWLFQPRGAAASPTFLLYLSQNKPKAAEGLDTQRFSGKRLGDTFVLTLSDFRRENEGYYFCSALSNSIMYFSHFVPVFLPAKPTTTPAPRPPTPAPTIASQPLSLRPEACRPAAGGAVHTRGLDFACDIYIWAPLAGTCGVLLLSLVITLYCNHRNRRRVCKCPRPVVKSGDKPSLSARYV

[3] = target: T2, human CD8 alpha (CD8A) on primary human …; experiment: flow cytometry, human CD8+ T cells, 0.2 uM FN3
In house human CD8A-Fc = target: T3, In house human CD8A-Fc (human, UniProt P01732 22-182, limits assumed); experiment: SPR (ProteOn), captured hCD8A-Fc
T3 construct: Captured on goat anti-human Fc on a ProteOn GLC chip; also called hCD8A-Fc; recombinant human CD8 alpha; not shown: linker with flag (and polyhistidine) tag and Fc of human IgG1
T3 sequence (P01732 22-182 limits assumed): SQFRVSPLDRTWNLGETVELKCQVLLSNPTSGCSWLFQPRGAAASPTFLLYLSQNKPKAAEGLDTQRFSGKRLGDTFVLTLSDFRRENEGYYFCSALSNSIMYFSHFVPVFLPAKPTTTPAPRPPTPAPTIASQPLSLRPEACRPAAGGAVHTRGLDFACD

[4] = target: T1, cynomolgus monkey CD8A on primary …; experiment: flow cytometry, cyno CD8+ T cells, 0.2 uM FN3

T1 sequence (P01732 other isoform, or with tags, fused parts or gaps limits assumed): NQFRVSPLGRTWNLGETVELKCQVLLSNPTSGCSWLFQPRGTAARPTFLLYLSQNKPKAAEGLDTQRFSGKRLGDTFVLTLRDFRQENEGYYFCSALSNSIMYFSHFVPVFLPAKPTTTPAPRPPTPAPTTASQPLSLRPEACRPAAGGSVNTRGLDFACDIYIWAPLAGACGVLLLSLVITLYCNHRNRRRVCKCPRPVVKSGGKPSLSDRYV

| Binder | Cyno T-cell Binding 2 uM (MFI) [1] [MFI] | Human T-cell Binding 2 uM (MFI) [2] [MFI] | Human T-cell Binding 0.2 uM (MFI) [3] [MFI] | koff (In house human CD8A-Fc) [s⁻¹] | Cyno T-cell Binding 0.2 uM (MFI) [4] [MFI] |
| --- | --- | --- | --- | --- | --- |
| P282CR9P1358_F11 (designed binder, FN3 domain) LPAPKNLVVSRVTEDSARLSWTAPDAAFDSFLIAYPEWPIFEGEAIVLTVPGSERSYDLTGLKPGTEYFVVIYGVKGGEQSSPLSAIFTT | 62400 | 6420 | 749 | 0.00135 | 6580 |
| P282DR9P1359_C5 (designed binder, FN3 domain) LPAPKNLVVSRVTEDSARLSWTAPDAAFDSFWITYPEWPDPGGEAIVLTVPGSERSYDLTGLKPGTEYFVVIYGVKGGEIYSPLSAIFTT | 95700 | 31000 | 5550 | 0.000174 | 14200 |
| P282FR9P1361_A5 (designed binder, FN3 domain) LPAPKNLVVSRVTEDSARLSWTAPDAAFDSFGILYYEPVDSGEAITLPVPGSERSYDLTGLKPGTEYWVVITGVKGGAPSTPLGAIFTT | 63500 | 32800 | 5210 | 0.000192 | 8110 |
| P282ER9P1360_C8 (designed binder, FN3 domain) LPAPKNLVVSRVTEDSARLSWTAPDAAFDSFGILYYEPVDSGEAITLPVPGSERSYDLTGLKPGTEYWVVITGVKGGAPSTPLGTIFTT | 66800 | 30600 | 6010 | 0.000156 | 10200 |
| P282ER9P1360_C6 (designed binder, FN3 domain) LSAPKNLVVSRVTEDSARLSWTAPDAAFDSFGILYYEPVDSGEAITLPIPGSERSYDLTGLKPGTEYWVVITGVKGGAPSTPLGAIFTT | 52800 | 25900 | 5080 | 0.000175 | 7580 |
| P282ER9P1360_C4 (designed binder, FN3 domain) LPAPKNLVVSRVTEDSARLSWTAPDAAFDSFGITYYEPNHGGEAISLSVPGSERSYDPTGLKPGTEYWVVITGVKGGAPSTPLGAIFTT | 33400 | 19200 | 3460 | 0.00107 | 3900 |
| P282ER9P1360_A9 (designed binder, FN3 domain) LPAPKNLVVSRVTEDSARLSWTAPDAAFDSFGILYYEPVDSGEAITLPIPGSERSYDLTGLKPGTEYWVVITGVKGGAPSTPLGAIFTT | 64700 | 23400 | 5340 | 0.000133 | 8730 |
| P282ER9P1360_C1 (designed binder, FN3 domain) LPAPKNLVVSRVTEDSARLSWTTPDAAFDSFGILYYEPVDSGEAITLPVPGSERSYDLTGLKPGTEYWVVITGVKGGAPSTPLGAIFTT | 64800 | 25900 | 6290 | 0.000181 | 9680 |
| P282DR9P1359_G4 (designed binder, FN3 domain) LPAPKNLVVSRVTEDSARLSWTAPDAAFDSFEIAYPEWPPPGEAIVLTVPGSERSYDLTGLKPGPEYFVVIQGVKGGDPSFPLSAIFTTGGNHHHHH | 78600 | 26600 | 2670 | 0.000517 | 6010 |
| P282DR9P1359_B2 (designed binder, FN3 domain) LPAPKNLVVSRVTEDSARLSWTAPDAAFDSFWIAYTEWPIPYEEAGQEGEAIVLTVPGSERSYDLTGLKPGTEYWVSIYGVKGGPNSQPLSAIFTT | 60900 | 22200 | 2730 | 0.000638 | 4470 |
| P282DR9P1359_F2 (designed binder, FN3 domain) LPAPKNLVVSRVTEDSARLSWTAPDAAFDSFNIAYPEALHPGYGEAIVLTVPGSERSYDLTGLKPGTEYWVIIGGVKGGQKSWPLSAIFTTGGHHHDHH | 38200 | 18400 | 3050 | 0.000722 | 4030 |
| P282DR9P1359_A7 (designed binder, FN3 domain) LPAPKNLVVSRVTEDSARLSWTAPDAAFDSFRIGYPELEKLGYGEAIVLTVPGSERSYDLTGLKPGTEYWVIIWGVKGGENSWPLSAIFTT | 83900 | 38400 | 8760 | 0.000754 | 22800 |
| P282DR9P1359_G7 (designed binder, FN3 domain) LPAPKNLVVSRVTEDSARLSWTAPDAAFDSFAITYIEKEHIEDGEAIVLTVPGSERSYDLTGLKPGTEYWVPIWGVKGGANSWPLSAIFTT | 69100 | 37600 | 6130 | 0.000114 | 8770 |
| P282DR9P1359_E11 (designed binder, FN3 domain) LPAPKNLVVSRVTEDSARLSWTAPDAAFDSFYISYPEWPPVGEAIVLTVPGSERSYDLTGLKPGTEYWVIIYGVKGGAISTPLSAIFTT | 104000 | 40600 | 7580 | 0.000265 | 33100 |
| P282DR9P1359_F6 (designed binder, FN3 domain) LPAPKNLVVSRVTEDSARLSWTAPDAAFDSFDIAYPEWPTTGEAIVLTVPGSERSYDLTGLKPGTEYFVVIWGVKGGDHSAPLSAIFTT | 73200 | 19900 | 3780 | 0.000389 | 10700 |
| P282DR9P1359_F3 (designed binder, FN3 domain) LPAPKNLVVSRVTEDSARLSWTAPDAAFDSFYITYPEWPVQGEAIVLTVPGSERSYDLTGLKPGTEYWVIIYGVKGGTESEPLSAIFTT | 48900 | 6340 | 646 | 0.00106 | 3080 |
| P282DR9P1359_F7 (designed binder, FN3 domain) LPAPKNLVVSRVTEDSARLSWTAPDAAFDSFAIAYPEWPPQGEAIVLTVPGSERSYDLTGLKPGTEYFVVIYGVKGGSYSAPLSAIFTT | 96500 | 38300 | 6930 | 0.000365 | 26300 |
| P282DR9P1359_E2 (designed binder, FN3 domain) LPAPKNLVVSRVTEDSARLSWTAPDAAFDSFNIFYPEIVTWGEAIVLTVPGSERSYDLTGLKPGTEYWVNIVGVKGGDNSWPLSAIFTT | 77700 | 28500 | 4820 | 0.00206 | 10900 |
| P282DR9P1359_F11 (designed binder, FN3 domain) LPAPKNLVVSRVTEDSARLSWTAPDAAFDSFDIFYPELPIHGEAIVLTVPGSERSYDLTGLKPGTEYWVNITGVKGGDFSWPLSAIFTT | 86700 | 35600 | 6590 | 0.000554 | 16100 |
| P282DR9P1359_H5 (designed binder, FN3 domain) LPAPKNLVVSRVTEDSARLSWTAPDAAFDSFNIAYPEALHPGYGEAIVLTVPGSERSYDLTGLKPGTEYFVVIYGVKGGTNSEPLSAIFTT | 2250 | 919 | 278 | 0.00449 | 500 |
